According to the DeepSol protein solubility set:

Assay: soluble on expression in E. coli; label from the status in PepcDB or PDB records
In the case of “MAAKFHLKKAKDGQFHFNLHAANGEIILTSELYKAKDSALGGIESVRKNSQRDGAFEVKPANNGKFHFVLKATNGQVVGQSQLYASQANAEAGVQSVKRATPEAGLSDES”, the “soluble on expression in E. coli” value is reported as “not soluble”. With “MAHHHHHHMQLQPPKPIIKDFNVGISPLVQTRLPLVFAQGEYPPPMQDVLLVGISLKADFSAVWDWNTKHMYVACIGRYHTKSNMTVGGVNLQKTHDVTIFDKVLRSKEEAANWTLDNAKKYALENEELGSLAGAAVELMILYHPMRHYGYSPYYTVQPGKNPVMFQLPTAYEKRTEEDDKNAMCSRGYA” the “soluble on expression in E. coli” value was “not soluble”. For “MKTPARRSKRVNQEESETNVTTRVVLRTRKTNCSKTRAARVRPDYPLTRTTSESEMKLMPPEFFQIDALDLAPRLLGKFMRRDNVVLRITEVEAYRPNDSACHGRFGVTPRTAPVFGPGGHAYVYLCYGLHMMLNIVADKEGVGAAVLIRSCSPVSGMETIQERRGLKTDKPVLLNGPGKVGQALGLSTEWSHHPLYSPGGLELLDGGEDVEKVMVGPRVGIDYALPEHVNALWRFAVADTPWISAPKNTLKPL”, the “soluble on expression in E. coli” value was “soluble”. For “HMGCAFLTYCARDSALKAQSALHEQKTLPGMNRPIQVKPADSESRGEDRKLFVGMLGKQQTDEDVRKMFEPFGTIDECTVLRGPDGTSKGCAFVKFQTHAEAQAAINTLHSSRTLPGASSSLVVKFADTEKERGLRRMQQVATQLGMFSPIALQFGAYSAYTQALMQQQAALVAAHSAYLSPMATMAAVQMQHMAAINANGLIATPITPSSGTSTPPAIAATPVSAIPAALGVNGYSPVPTQPTGQPAPDALYPNGVHPYPAQSPAAPVDPLQQAYAGMQHYTAAYPAAYSLVAPAFPQPPALVAQQPPPPPQQQQQQQQQQQQQQQREGPDGCNIFIYHLPQEFTDSEILQMFVPFGHVISAKVFVDRATNQSKCFGFVSFDNPASAQAAIQAMNGFQIGMKRLKVQLKRPKDANRPY”, the “soluble on expression in E. coli” value was “soluble”. In the case of “MGHHHHHHSHMIDILDVKSRATIQDLGRFGLRRFGISHCGAMDKLALRAGNILLGNAENVPAIEVPLGGITLQFQQDMNFCVTGAFYEMMLDDKPVFAYWRYQVRAGQILKMARAKIGMYGYLCVQGGFVLPQALNSCSTDLRAQIGGIEGRCLQAGDQLQTANDHILRSEIGIAPIPLRDVIRALPSSEYQAFKRKSQYYWWRNEWTLQSNSDRMGYRFQGQTLELKQPLEMLSHAIQFGSVQVPPSGQPIILMADAQTTGGYPKIANVIDADLGALAQVRLGSTIKFEAVSLQEAAKLRRKNEIYLDQIRRIVDEKN”, the “soluble on expression in E. coli” value is reported as “not soluble”. For “MSFGLVGTVNNNGWKSPFRHETKYRAGYDKFKYYKTHYRGAKKAGTNDDRWRWTAWFDLDFAHQKIVLIERGELHRQADLKKSDPATNETSKTVWGSIKEKLLQNVNNLHSEKGVFLWFRQSGFTTTRN”, the “soluble on expression in E. coli” value was “soluble”. With “EFNDKYPDINIDMELDNRFVDIVNERFDLAIRTGMLPDSSLIARKLVDANWVVCASPKYLAKHGIPKQPIELTKHNCLVYSYQETGAREWAFKAGDKMYQVTVDGNLCTNNSSALRN” the “soluble on expression in E. coli” value was “not soluble”. For “MAIQTSNLGYPRIGLQREWKKTLEAFWSNKINEEQFLTTMKEIRLQHVKVQQEKGIELIPIGDFTYYDHVLDTAYMLGFIPSRFSEFTSYLDVYFAMARGSKDHVASEMTKWFNTNYHYIVPEYEEGLQISLKDNRPLRLYEEAKQELGVDGKPVILGPYTFLKLAKGYTQEQFATILKQLVAPYVQLLSELHAAGAQIIQVDEPIFASLTKEEVQQAKEIYEAIRKEVPNATLLLQTYFDSVEENYEEIITFPVSSIGLDFVHGKEGNLNAISKYGFPADKTLAVGCIDGRNIWRADLDEVLTLFTTLQKQVQTKDLIVQPSCSLLHTPIDKTEETHLSTELFDALAFANQKLEELVLIHSALTQGTESISNELETYRNVHHTIRSSAARNREDVKAARTALKEEDFSRPLPFEKRYELQQVALKLPLLPTTTIGSFPQTTEVRQTRKEWRNGIISNEQYEQFIEKETEKWIRYQEEIGLDVLVHGEFERTDMVEYFGERLAGFSFTKNGWVQSYGSRCVKPPVIYGDVAFINGMTIKETVYAQSLTEKVVKGMLTGPVTILNWSFVRNDIPRKEVSYQIALALRHEIELLESSGIRVIQVDEPALREGMPLKEKDWDAYITWAVQSFLLATSSVANETQIHTHMCYSNFEDIVDAIRALDADVISIETSRSHGEFIDTLKHTTYEKGIGLGVYDIHSPRVPSKDEMYKIVEQSLQVCDPKYFWINPDCGLKTRRTEEVIPALEHMVQAAKDARSLLKTNA”, the “soluble on expression in E. coli” value was “not soluble”. For “MGSDKIHHHHHHMLDLGCGDGTLLHYLRDKLDIHGYGVEIDAHNILACMKNGINVIQNDLEAGLSEFEGESFDYVILSQTLQAMKNTEYIIREMLRVGKEGIVSFPNFGYWKNRIQVAGGHMPVSPTLPYQWYDTPNVHLCTLHDFEQLCQQHRVNILERRVMNNDKKVTFLPNLFGILAFYRFSHAA”, the “soluble on expression in E. coli” value was “not soluble”. In the case of “MGADLRYNMEITLEEAFAGKTAQIRVPTSITCDVCSGSGAKPGTQPKTCATCQGSGRVRAAQGFFSVERTCPTCHGRGQTISDPCGKCHGQGRVTEERSLSVNIPSGIEDGTRIRLQGEGEAGMRGGPAGDLYIFLSVRPHEFFQRDGADLYCTVPISMTTAALGGTFDVTTLDGTKSRVTVPEGTQPGKQFRLKGKGMPVLRSAQTGDLYIQIQIETPQKLSKRQRELLQEFEQLSSKENNPLEHHHHHH”, the “soluble on expression in E. coli” value is reported as “soluble”. With “MAAHFDLTDLQLLVHIGDWHSLTRGAEKSHLSLPAASTRVKNLEEHFGTQLLYRTSQGVTLTPSGEAMLRHARTVMQQVEQMRGDMQEFARGVKGHVRVLANTTAMTEFMPAVLARYLAAHPDVNVELRERLSYLVVRAVADGSADIGVVAGCAPDQKLQFIPYRKDRLVVVTPAGHRLAAEESVAFADTLADDYVGLSEWSAIHPFLVQAAASLGRTFKFRVEVGNFEAVCRMIESGVGIGVIPESAALRYARNLDIALVGLTDEWAVRELQICVKNLDSLPVFARELVETLVADGDAAG” the “soluble on expression in E. coli” value was “soluble”. For “MSLEIRRADKDDLDDFVRVYVESYRGLEDYAYTRKRDVKNYFKWLLSRDKDGVMVAEIDGEAVGFVACDTNWFSIFERKKVGEIHELFVLPEFRGEGIGAKLMEKALEYALERNRKVAELWVGRTNYRARRFYASQDLRRPESGGSGSEEGHHHHHH”, the “soluble on expression in E. coli” value was “not soluble”. With “MKILNRLATDVGLMLRRPPRQQYAALCYRLSKSNPEPEVLLLTSRDTGRWVIPKGWPMANKKAHAVAEQEAYEEAGVKGTVEKAPFGYYEYEKKLNSGINVPCKVQVHLLEVSEMRDSFPEKDARRLEWVSPREAGKRVNEPELKALMLAFDKRMAHSQ” the “soluble on expression in E. coli” value was “not soluble”. With “MIINLVKQLGTTRGYITLWTGIDSAIAALAVQGIASHRTQQYIDEYYPNIGGPLLNQDKEEDELTDAESFRRVIRNGFRDSVIRVVAVTAARPFAVCFARQVAQVIGNETKYTTCAQALAVIGKQEGPGGLFSGLAPQIVGELLVIWGVHLITHGIQRAILRIEFGDTKNKDETKAKAAKDVHKFIHTAVPFLVNSFGYPYSVVSTVMAVAGSGLAVSFLPYSPSFNNWHGAWDYLRPIGLKRGNRLFLREQVGAVTVGVDQQLYASNSYFA” the “soluble on expression in E. coli” value was “not soluble”. With “MARKAESSNRLDDAARAGWLYYVAGRTQDEIASVMGISRQSAQRLVSLAMAERLIKVRLDHPIAACLEMAARLKEKYDLKHVDVVPSDPGSDSTTVGIAEAGAAEIERWLKSAEPVVLAIGTGRTLKATIDQLPSMECPQHRIVSLTGNIRLDGSAAYYNVIFSMADTIKARHFPMPLPVLVSSPEEREVLHKQSLVQIALELGAEADAAFVGVGELGPDAPLCEDGFLARDEMARLMAAGAAGEICGWMFDHEGVLLPDSINERVASVPLPPRDRASVIGIAKGRRKHEALRAALKGRIINGLVTDEATADYLLRV” the “soluble on expression in E. coli” value was “not soluble”. In the case of “MNKEITFDKLPEAVTYLTEQVSAIKEMVSALHPPVPEEKSLIGIDEACVIIQKAKPTIYALVRKGIVPAYKRGKKLYFYKEELLQWVESGRKGATTAISSEEQLAMMRQEVRRKPKSIK”, the “soluble on expression in E. coli” value is reported as “not soluble”. With “MGYHGGTMRVLGRRIYWRWYGEVLLEGGVTLRMTGDVAKWLRPGDRVRLRTEFKKPVLGFDEYALEAVFPLWPPFAKTLEHVRESPFGGKAYRYRLKVREATYEGDYEAIAELEQFHYASEKEVVALWVCTQCQKTLPANARPLCDCGGEARLKEIRGSTPASRFLVLELAERLPFEPRILGYLRLDPPIPRMHRRTPEGVERDIRERIFPRDWFHPTYEGGADWQRALDRVNTAAARIARVVVHPDYRSEGFGALLVRVALEWAKERGAPEARREKHLVYTIAQMARYHPFFEKVGFRYLFDTASGRPVLFYPLTEEAEAHLERFLREDPYAKAHGGRLYKPRFGRVPGLPGPIRLRGVHKAYRSHLDLEGLSREVQEALLAFGVKARVVERAVLRGASLEIPPGSLVVLAGASGAGKTTLLRLLLGEAPDAGEVAVPPGRRVAYIPGEREVDLGEDPILEAVYRRLKDVGAAIEVLNRVGLSDAVLYRARPHELSTGQRERFRLALLLAERPDLLLIDEFAAHLDVPTARRVALGLGKLCREAGVTLVAATHRPEVVAALDPDLLVYVGYGGLTTVPRRGPRT” the “soluble on expression in E. coli” value was “soluble”. For “ALGDTLTITLGGSGGTAKVLRKINQDGYTSEYYLPETSSSFRAKVRHTKESVKPNQVQYERHNVEFTETVYASGSTPEFVRQAYVVIRHKVGDVSATVSDLGEALSFYLNEALYGKLIGWES”, the “soluble on expression in E. coli” value was “soluble”. For “MLLTLNALPFVLVNCGGKKKPAPPPKAAAKPMAAPAGGAGGAGGAGGAGKSDSFDSKKQDIPSSKKEEPVAPKKEDEGNYEELAIPQ”, the “soluble on expression in E. coli” value was “not soluble”. With “YHETVIYEAHVKGMTQTHPSIPPELRGTYAGLAHPVIIDHLNELNVTAVELMPVHQFLHDSRLLDLGLRNYWGYNTFGFFAPHHQYASTRQAGSAVAEFKTMVRSLHEAGIEVILDVVYNHTAEGNHLGPTINFRGIDNTAYYRLMDHDLRFYKDFTGTGNSLNARHPHTLQLIMDSLRYWVIEMHVDGFRFDLASTLARELHDVDRLSAFFDLVQQDPVVSQVKLIAEPWDVGEGGYQVGNFPGLWTEWNGKYRDTVRDYWRGEPATLGEFASRLTGSSDLYEATGRRPSASINFVTAHDGFTLNDLVSYNDKHNEANGENNRDGESYNRSWNCGVEGPTDDPDILALRARQMRNMWATLMVSQGTPMIAHGDEIGRTQYGNNNVYCQDSELSWMDWSLVDKNADLLAFARKATTLRKNHKVFRRRRFFEGEPIRSGDEVRDIAWLTPSGREMTHEDWGRGFDRCVAVFLNGEAITAPDARGERVVDDSFLLCFNAHDHDVEFVMPHDGYAQQWTGELDTNDPVGDIDLTVTATDTFSVPARSLLVLRKTL” the “soluble on expression in E. coli” value was “soluble”. For “MYYDVLKTFIAVVEEKNFTKAAEKLMISQPSVSLHIKNLEKEFQTALLNRSPKHFTTTPTGDILYQRAKQMVFLYEQAKAEIYAHHHYVKGELKIAASFTIGEYILPPLLAQLQKLYPELNLDVMIGNTEEVSERVRMLQADIGLIEGHTNENELEIEPFMEDEMCIAAPNQHPLAGRKEISISDLQNEAWVTREKGSGTREYLDHVLSSNGLRPKSMFTISSNQGVKEAVINGMGLSVLSRSVLRKDLIHREISILHINNFSLKRKLSYIHSPLMENTKNKEIFITMLKSNYQSQLLK”, the “soluble on expression in E. coli” value was “soluble”. In the case of “MGSDKIHHHHHHMSNSDPIERFFRSGLKLPHLRILVSLADLGQVTRVAAAFHVTQPAISKQIAEIEDALGVAVVNRVGNALELTGIGQVIVSCGREVLRHIELAKRDVSALASGTAGHVRVGAVVTIPEPLIANSVQLFIRRAPSASLSFAESTLDRLIRMMDDGELDIALGRNRIAGANSAQSTLKQEILHREPFVFVAGAHHPLGDPDRPTTWADLRGCRWITPMHGSPAYATLVEALAVHDLTPDPGAVESSSLALNVALIRSGDFVSILPMSVARPQVMRGNMRVLPLPPLQPLGEIVAYWRLGSTTPAAQLFNACLKEVSSDLLGERIEAG”, the “soluble on expression in E. coli” value is reported as “not soluble”. With “MSRSRQPPLVTGISPNEGIPWTKVTIRGENLGTGPTDLIGLTICGHNCLLTAEWMSASKIVCRVGQAKNDKGDIIVTTKSGGRGTSTVSFKLLKPEKIG” the “soluble on expression in E. coli” value was “soluble”.
